Key:
[1] = molecular target: S. frugiperda (FAW) BBMV proteins / receptor(s) (brush border membrane vesicles from wild type, Cry1Fa-sensitive larvae) (Spodoptera frugiperda); test: pull-down competition on FAW BBMVs; ^125I-Cry1Fa remaining bound with 1000 nM unlabeled Cry1Ab competitor
[2] = molecular target: S. frugiperda (FAW) BBMV proteins / receptor(s) (brush border membrane vesicles from wild type, Cry1Fa-sensitive larvae) (Spodoptera frugiperda); test: pull-down competition on FAW BBMVs; ^125I-Cry1Fa remaining bound with 1000 nM unlabeled Cry1Ca competitor
[3] = molecular target: O. nubilalis (ECB) BBMV proteins (brush border membrane vesicles from wild type, Cry1Fa-sensitive larvae) (Ostrinia nubilalis); test: pull-down assay on ECB BBMVs, no competitor, phosphor-imaging densitometry
[4] = molecular target: O. nubilalis (ECB) BBMV proteins (brush border membrane vesicles from wild type, Cry1Fa-sensitive larvae) (Ostrinia nubilalis); test: saturation binding of radioligand (0.5-20 nM) to 150 ug/mL ECB BBMV proteins, centrifugation and gamma counting
[5] = molecular target: S. frugiperda (FAW) BBMV proteins / receptor(s) (brush border membrane vesicles from wild type, Cry1Fa-sensitive larvae) (Spodoptera frugiperda); test: pull-down assay on FAW BBMVs, no competitor, phosphor-imaging densitometry
[6] = molecular target: BBMVs prepared from Cry1Fa-resistant S. frugiperda (rFAW) larvae (Spodoptera frugiperda); test: pull-down assay on rFAW BBMVs, no competitor, phosphor-imaging densitometry
[7] = molecular target: BBMVs prepared from Cry1Fa-resistant O. nubilalis (rECB) larvae (Ostrinia nubilalis); test: pull-down assay on rECB BBMVs, no competitor, phosphor-imaging densitometry
[8] = molecular target: S. frugiperda (FAW) BBMV proteins / receptor(s) (brush border membrane vesicles from wild type, Cry1Fa-sensitive larvae) (Spodoptera frugiperda); test: pull-down competition on FAW BBMVs; ^125I-Cry1Fa remaining bound with 1000 nM unlabeled Cry1Fa competitor
[9] = molecular target: O. nubilalis (ECB) BBMV proteins (brush border membrane vesicles from wild type, Cry1Fa-sensitive larvae) (Ostrinia nubilalis); test: pull-down competition on ECB BBMVs; ^125I-Cry1Fa remaining bound with 1000 nM unlabeled Cry1Fa competitor
[10] = molecular target: BBMVs prepared from Cry1Fa-resistant O. nubilalis (rECB) larvae (Ostrinia nubilalis); test: pull-down competition on rECB BBMVs; ^125I-Cry1Fa remaining bound with 1000 nM unlabeled Cry1Fa competitor

Substance: Cry1Ab core toxin protein (from UniProt P0A370 29-607) (ligand)
- Relative Amounts of radio-iodinated Cry1Fa Protein Bound [1]: -4%

Substance: Cry1Ca core toxin protein (from UniProt P0A373) (ligand)
- Relative Amounts of radio-iodinated Cry1Fa Protein Bound [2]: 50%

Substance: ^125I radiolabeled fluorescein-Cry1Fa core toxin protein (trypsin-truncated) (from UniProt Q03746 1-603) (ligand)
- Relative Amounts of radio-iodinated Cry1Fa Protein Bound [3]: 100%
- Bmax [4]: 37 fmol/mg
- Kd [4]: 11 nM
- Relative Amounts of radio-iodinated Cry1Fa Protein Bound [5]: 100%
- Relative Amounts of radio-iodinated Cry1Fa Protein Bound [6]: 10%
- Relative Amounts of radio-iodinated Cry1Fa Protein Bound [7]: 64%

Substance: non-radioactive (unlabeled) Cry1Fa core toxin protein (trypsin-truncated) (from UniProt Q03746 1-603) (ligand)
- Relative Amounts of radio-iodinated Cry1Fa Protein Bound [8]: 0%
- Relative Amounts of radio-iodinated Cry1Fa Protein Bound [9]: 31%
- Relative Amounts of radio-iodinated Cry1Fa Protein Bound [10]: 51%

Reference: patent publication US20120156803A1
